± gives the uncertainty stated by the source.
B1: E3 ubiquitin-protein ligase Midline-1, residues 172 to 214; numbered along this chain, O15344 (parent)
chain: GLMCLEHEDEKVNMYCVTDDQLICALCKLVGRHRDHQVAALSE

Variants of: B1
Test: abundance fitness (aPCA) (normalised: wild type 0, dead -1); higher = more abundant; growth selection in yeast, the domain comes from the species named
Settings: Homo sapiens

Variant	abundance fitness
GLMCLEHEDEKVNMYCVTDDQLICALEKLVGRHRDHQVAALSE [C27E]	-0.741 ± 0.13
GLMCLEHEDEKVNMYCVTDDQLICALQKLVGRHRDHQVAALSE [C27Q]	-0.913 ± 0.2
GLMCLEHEDEKVNMYCVTDDQLICALNKLVGRHRDHQVAALSE [C27N]	-0.478 ± 0.45
GLMCLEHEDEKVNMYCVTDDQLICALVKLVGRHRDHQVAALSE [C27V]	-1 ± 0.099
GLMCLEHEDEKVNMYCVTDDQLICALKKLVGRHRDHQVAALSE [C27K]	-0.429 ± 0.43
GLMCLEHEDEKVNMYCVTDDQLICALAKLVGRHRDHQVAALSE [C27A]	-0.757 ± 0.081
GLMCLEHEDEKVNMYCVTDDQLICALSKLVGRHRDHQVAALSE [C27S]	-0.807 ± 0.11
GLMCLEHEDEKVNMYCVTDDQLICALYKLVGRHRDHQVAALSE [C27Y]	-0.448 ± 0.35
GLMCLEHEDEKVNMYCVTDDQLICALTKLVGRHRDHQVAALSE [C27T]	-0.571 ± 0.14
GLMCLEHEDEKVNMYCVTDDQLICALWKLVGRHRDHQVAALSE [C27W]	-1.01 ± 0.11
GLMCLEHEDEKVNMYCVTDDQLICALLKLVGRHRDHQVAALSE [C27L]	-0.883 ± 0.12
GLMCLEHEDEKVNMYCVTDDQLICALHKLVGRHRDHQVAALSE [C27H]	-0.481 ± 0.31
GLMCLEHEDEKVNMYCVTDDQLICALMKLVGRHRDHQVAALSE [C27M]	-1.02 ± 0.2
GLMCLEHEDEKVNMYCVTDDQLICALGKLVGRHRDHQVAALSE [C27G]	-0.696 ± 0.074
GLMCLEHEDEKVNMYCVTDDQLICALDKLVGRHRDHQVAALSE [C27D]	-0.328 ± 0.11
GLMCLEHEDEKVNMYCVTDDQLICALIKLVGRHRDHQVAALSE [C27I]	-0.538 ± 0.37
GLMCLEHEDEKVNMYCVTDDQLICALPKLVGRHRDHQVAALSE [C27P]	-0.166 ± 0.17
GLMCLEHEDEKVNMYCVTDDQLICALCKLCGRHRDHQVAALSE [V30C]	-0.115 ± 0.15
GLMCLEHEDEKVNMYCVTDDQLICALCKLDGRHRDHQVAALSE [V30D]	0.145 ± 0.058
GLMCLEHEDEKVNMYCVTDDQLICALCKLAGRHRDHQVAALSE [V30A]	0.15 ± 0.058

Variant	abundance fitness
GLMCLEHEDEKVNMYCVTDDQLICALCKLEGRHRDHQVAALSE [V30E]	0.138 ± 0.064
GLMCLEHEDEKVNMYCVTDDQLWCALCKLVGRHRDHQVAALSE [I23W]	-0.423 ± 0.39
GLMCLEHEDEKVNMYCVTDDQLKCALCKLVGRHRDHQVAALSE [I23K]	-0.312 ± 0.098
GLMCLEHEDEKVNMYCVTDDQLFCALCKLVGRHRDHQVAALSE [I23F]	-0.38 ± 0.31
GLMCLEHEDEKVNMYCVTDDQLLCALCKLVGRHRDHQVAALSE [I23L]	-0.019 ± 0.26
GLMCLEHEDEKVNMYCVTDDQLSCALCKLVGRHRDHQVAALSE [I23S]	-0.369 ± 0.23
GLMCLEHEDEKVNMYCVTDDQLGCALCKLVGRHRDHQVAALSE [I23G]	-0.19 ± 0.085
GLMCLEHEDEKVNMYCVTDDQLTCALCKLVGRHRDHQVAALSE [I23T]	-0.1 ± 0.075
GLMCLEHEDEKVNMYCVTDDQLECALCKLVGRHRDHQVAALSE [I23E]	-0.233 ± 0.15
GLMCLEHEDEKVNMYCVTDDQLMCALCKLVGRHRDHQVAALSE [I23M]	0.011 ± 0.089
GLMCLEHEDEKVNMYCVTDDQLDCALCKLVGRHRDHQVAALSE [I23D]	-0.124 ± 0.16
GLMCLEHEDEKVNMYCVTDDQLRCALCKLVGRHRDHQVAALSE [I23R]	-0.237 ± 0.09
GLMCLEHEDEKVNMYCVTDDQLVCALCKLVGRHRDHQVAALSE [I23V]	0.151 ± 0.082
GLMCLEHEDEKVNMYCVTDDQLCCALCKLVGRHRDHQVAALSE [I23C]	-0.081 ± 0.26
GLMCLEHEDEKVNMYCVTDDQLACALCKLVGRHRDHQVAALSE [I23A]	0.022 ± 0.068
GLMCLEHEDEKVNMYCVTDDQLICLLCKLVGRHRDHQVAALSE [A25L]	-0.28 ± 0.064
GLMCLEHEDEKVNMYCVTDDQLICILCKLVGRHRDHQVAALSE [A25I]	-0.266 ± 0.11
GLMCLEHEDEKVNMYCVTDDQLICGLCKLVGRHRDHQVAALSE [A25G]	0.105 ± 0.046
GLMCLEHEDEKVNMYCVTDDQLICPLCKLVGRHRDHQVAALSE [A25P]	-0.124 ± 0.11
GLMCLEHEDEKVNMYCVTDDQLICVLCKLVGRHRDHQVAALSE [A25V]	-0.303 ± 0.095

Variant	abundance fitness
GLMCLEHEDEKVNMYCVTDDQLICRLCKLVGRHRDHQVAALSE [A25R]	0.099 ± 0.052
GLMCLEHEDEKVNMYCVTDDQLICHLCKLVGRHRDHQVAALSE [A25H]	0.188 ± 0.093
GLMCLEHEDEKVNMYCVTDDQLICWLCKLVGRHRDHQVAALSE [A25W]	-0.181 ± 0.1
GLMCLEHEDEKVNMYCVTDDQLICQLCKLVGRHRDHQVAALSE [A25Q]	0.087 ± 0.067
GLMCLEHEDEKVNMYCVTDDQLICMLCKLVGRHRDHQVAALSE [A25M]	-0.23 ± 0.1
GLMCLEHEDEKVNMYCVTDDQLICFLCKLVGRHRDHQVAALSE [A25F]	-0.233 ± 0.12
GLMCLEHEDEKVNMYCVTDDQLICTLCKLVGRHRDHQVAALSE [A25T]	-0.16 ± 0.13
GLMCLEHEDEKVNMYCVTDDQLICDLCKLVGRHRDHQVAALSE [A25D]	-0.073 ± 0.094
GLMCLEHEDEKVNMYCVTDDQLICELCKLVGRHRDHQVAALSE [A25E]	-0.018 ± 0.055
GLMCLEHEDEKVNMYCVTDDQLICKLCKLVGRHRDHQVAALSE [A25K]	-0.02 ± 0.062
GLMCLEHEDEKVNMYCVTDDQLICCLCKLVGRHRDHQVAALSE [A25C]	-0.097 ± 0.082
GLMCLEHEDEKVNMYCVTDDQLICAMCKLVGRHRDHQVAALSE [L26M]	0.031 ± 0.078
GLMCLEHEDEKVNMYCVTDDQLICANCKLVGRHRDHQVAALSE [L26N]	0.193 ± 0.2
GLMCLEHEDEKVNMYCVTDDQLICAYCKLVGRHRDHQVAALSE [L26Y]	-0.041 ± 0.11
GLMCLEHEDEKVNMYCVTDDQLICARCKLVGRHRDHQVAALSE [L26R]	0.272 ± 0.053
GLMCLEHEDEKVNMYCVTDDQLICAECKLVGRHRDHQVAALSE [L26E]	0.101 ± 0.054
GLMCLEHEDEKVNMYCVTDDQLICADCKLVGRHRDHQVAALSE [L26D]	0.089 ± 0.075
GLMCLEHEDEKVNMYCVTDDQLICACCKLVGRHRDHQVAALSE [L26C]	0.138 ± 0.066
GLMCLEHEDEKVNMYCVTDDQLICAPCKLVGRHRDHQVAALSE [L26P]	0.295 ± 0.1

Source: the Human Domainome abundance scans (Beltran et al. 2025)
